# In patent US20180325979A1 (UNIVERSITY OF SOUTHAMPTON, published 2018):
# Target: T1, HLA-Cw*0102 on the HLA-Cw*0102-positive cell line L721.174
# T1 construct: whole, on cells
# Test: MHC class I stabilisation on L721.174 cells, flow cytometry
row,Binder,binding result
1,IVDLMCHATF (also called Dengue virus peptide) [peptide IVDLMCHATF (SEQ ID NO: 1)],binds
2,LNPSVAATL [peptide LNPSVAATL (SEQ ID NO: 5)],binds
